The supplement of paper PMC9112550, “Optimization of the antimicrobial peptide Bac7 by deep mutational scanning” (BMC Biology, 2022)

These sequences were tested on Escherichia coli TOP10 (assay: shrunken log2 fold change of peptide-encoding DNA abundance (4.5 h post-induction vs induction); higher = less antimicrobial activity (less host growth inhibition)). Conditions: time post-induction: 4.5 h; library: site-saturation at positions 5, 18, 19, 20.
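Note: peptides expressed intracellularly from a pBAD plasmid library in pooled LB shake-flask culture, induced with 0.3% L-arabinose, DNA abundance read by NGS, three biological replicates, DESeq2 with apeglm shrinkage.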

Sequence	shrunken log2 fold change
RRIRSRPPRLPRPRPRPTYIPRP	-0.598
RRIRTRPPRLPRPRPRPACSPRP	0.19
RRIRPRPPRLPRPRPRPMMAPRP	0.0466
RRIRFRPPRLPRPRPRPRKLPRP	0.134
RRIRFRPPRLPRPRPRPEGNPRP	-0.0429
RRIRPRPPRLPRPRPRPASTPRP	0.11
RRIRYRPPRLPRPRPRPQFAPRP	0.0437
RRIRERPPRLPRPRPRPMFRPRP	-0.737
RRIRERPPRLPRPRPRPRAIPRP	0.0706
RRIRDRPPRLPRPRPRPLLQPRP	0.287
RRIRARPPRLPRPRPRPWDCPRP	0.0143
RRIRPRPPRLPRPRPRPVPLPRP	0.0768
RRIRKRPPRLPRPRPRPDSKPRP	-0.0709
RRIRLRPPRLPRPRPRPVYGPRP	-0.183
RRIRVRPPRLPRPRPRPCAMPRP	-0.16
RRIRSRPPRLPRPRPRPWWAPRP	-0.0137
RRIRDRPPRLPRPRPRPTGLPRP	-0.000418
RRIRARPPRLPRPRPRPVAPPRP	0.612
RRIRWRPPRLPRPRPRPQKCPRP	-0.382
RRIRYRPPRLPRPRPRPQHCPRP	-0.0601
RRIRKRPPRLPRPRPRPTIYPRP	-0.0381
RRIRPRPPRLPRPRPRPACQPRP	0.22

Sequence	shrunken log2 fold change
RRIRWRPPRLPRPRPRPGNQPRP	-0.225
RRIRSRPPRLPRPRPRPVEMPRP	0.0369
RRIRMRPPRLPRPRPRPTMHPRP	0.488
RRIRERPPRLPRPRPRPQPCPRP	-0.312
RRIRYRPPRLPRPRPRPHKDPRP	-0.428
RRIRCRPPRLPRPRPRPSTTPRP	-0.257
RRIRARPPRLPRPRPRPHWTPRP	-0.0108
RRIRTRPPRLPRPRPRPRIHPRP	0.0773
RRIRWRPPRLPRPRPRPDAAPRP	2.23
RRIRTRPPRLPRPRPRPNESPRP	-0.379
RRIRNRPPRLPRPRPRPLRDPRP	0.521
RRIRHRPPRLPRPRPRPFITPRP	-0.799
RRIRMRPPRLPRPRPRPGHLPRP	0.0373
RRIRKRPPRLPRPRPRPAFQPRP	0.107
RRIRSRPPRLPRPRPRPHQCPRP	-0.325
RRIRKRPPRLPRPRPRPWQRPRP	-0.0202
RRIRFRPPRLPRPRPRPAIPPRP	-0.0151
RRIRARPPRLPRPRPRPEWPPRP	0.591
RRIRVRPPRLPRPRPRPCHYPRP	-0.0563
RRIRTRPPRLPRPRPRPNSMPRP	-0.496
RRIRQRPPRLPRPRPRPNRAPRP	0.025
RRIRFRPPRLPRPRPRPSGNPRP	-0.24

Sequence	shrunken log2 fold change
RRIRSRPPRLPRPRPRPHPAPRP	-0.177
RRIRQRPPRLPRPRPRPRCRPRP	0.0135
RRIRMRPPRLPRPRPRPKMYPRP	0.0587
RRIRSRPPRLPRPRPRPKPVPRP	0.0648
RRIRCRPPRLPRPRPRPEWKPRP	0.0169
RRIRTRPPRLPRPRPRPYEHPRP	-0.0707
RRIRVRPPRLPRPRPRPVTVPRP	-0.0359
RRIRMRPPRLPRPRPRPIHTPRP	-0.0437
RRIRIRPPRLPRPRPRPSMDPRP	-0.353
RRIRTRPPRLPRPRPRPLPAPRP	0.364
RRIRYRPPRLPRPRPRPSAIPRP	-0.939
RRIRMRPPRLPRPRPRPHLGPRP	0.086
RRIRPRPPRLPRPRPRPKPFPRP	0.129
RRIRVRPPRLPRPRPRPFYRPRP	-0.576
RRIRRRPPRLPRPRPRPRQQPRP	-0.0361
RRIRDRPPRLPRPRPRPEAAPRP	1.84
RRIRMRPPRLPRPRPRPKCEPRP	0.52
RRIRHRPPRLPRPRPRPMPCPRP	-0.105
RRIRGRPPRLPRPRPRPNCNPRP	0.199
RRIRFRPPRLPRPRPRPHVSPRP	-0.135
RRIRARPPRLPRPRPRPHDHPRP	-0.0299
RRIRPRPPRLPRPRPRPHMIPRP	-0.98

Sequence	shrunken log2 fold change
RRIRLRPPRLPRPRPRPLVQPRP	-0.0853
RRIRTRPPRLPRPRPRPYKWPRP	-0.0875
RRIRERPPRLPRPRPRPSYMPRP	-0.0864
RRIRSRPPRLPRPRPRPYQQPRP	-2.39
RRIRYRPPRLPRPRPRPKQNPRP	-0.473
RRIRLRPPRLPRPRPRPMKCPRP	0.131
RRIRPRPPRLPRPRPRPIHSPRP	-0.0694
RRIRQRPPRLPRPRPRPLTWPRP	-0.21
RRIRWRPPRLPRPRPRPTFCPRP	0.478
RRIRPRPPRLPRPRPRPMYDPRP	-0.0348
RRIRWRPPRLPRPRPRPTLTPRP	0.697
RRIRHRPPRLPRPRPRPMLCPRP	-0.0124
RRIRYRPPRLPRPRPRPKLWPRP	0.64
RRIRVRPPRLPRPRPRPIQHPRP	-0.415
RRIRRRPPRLPRPRPRPCRFPRP	-0.0495
RRIRHRPPRLPRPRPRPRKFPRP	0.15
RRIRERPPRLPRPRPRPDTLPRP	-0.00753
RRIRTRPPRLPRPRPRPYAKPRP	-0.0117
RRIRDRPPRLPRPRPRPTNQPRP	-0.00895
RRIRVRPPRLPRPRPRPCSKPRP	-0.0775
RRIRMRPPRLPRPRPRPSTGPRP	0.17
RRIRYRPPRLPRPRPRPWCYPRP	-1.21

Sequence	shrunken log2 fold change
RRIRMRPPRLPRPRPRPRQEPRP	1.13
RRIRCRPPRLPRPRPRPPDLPRP	-0.00662
RRIRRRPPRLPRPRPRPCWLPRP	0.202
RRIRRRPPRLPRPRPRPSESPRP	0.0539
RRIRNRPPRLPRPRPRPLDEPRP	0.126
RRIRARPPRLPRPRPRPQCPPRP	0.108
RRIRARPPRLPRPRPRPPMMPRP	0.421
RRIRSRPPRLPRPRPRPTVCPRP	0.0523
RRIRVRPPRLPRPRPRPVSEPRP	0.155
RRIRLRPPRLPRPRPRPQTYPRP	-0.371
RRIRERPPRLPRPRPRPMDIPRP	-0.235
RRIRPRPPRLPRPRPRPTWSPRP	0.324
RRIRVRPPRLPRPRPRPTTGPRP	0.141
RRIRVRPPRLPRPRPRPKGAPRP	0.553
RRIRYRPPRLPRPRPRPHQKPRP	-0.248
RRIRSRPPRLPRPRPRPWIIPRP	-0.159
RRIRMRPPRLPRPRPRPYNQPRP	-0.486
RRIRIRPPRLPRPRPRPIPPPRP	0.112
RRIRNRPPRLPRPRPRPIFKPRP	-0.174
RRIRFRPPRLPRPRPRPWQAPRP	0.0155
RRIRWRPPRLPRPRPRPSYQPRP	-1.04
